assay: soluble on expression in E. coli; label from the status in PepcDB or PDB records

Row | Sequence | soluble on expression in E. coli
1 | MRKEAIHHRSTDNFAYAYDSETLHLRLQTKKNDVDHVELLFGDPYEWHDGAWQFQTMPMRKTGSDGLFDYWLAEVKPPYRRLRYGFVLRAGGEKLVYTEKGFYHEAPSDDTAYYFCFPFLHRVDLFQAPDWVKDTVWYQIFPERFANGNPAISPKGARPWGSEDPTPTSFFGGDLQGIIDHLDYLADLGITGIYLTPIFRAPSNHKYDTADYFEIDPHFGDKETLKTLVKRCHEKGIRVMLDAVFNHCGYEFAPFQDVLKNGAASRYKDWFHIREFPLQTEPRPNYDTFAFVPHMPKLNTAHPEVKRYLLDVATYWIREFDIDGWRLDVANEIDHQFWREFRQAVKALKPDVYILGLIWHDAMPWLRGDQFDAVMNYPLADAALRFFAKEDMSASEFADRLMHVLHSYPKQVNEAAFNLLGSHDTPRLLTVCGGDVRKVKLLFLFQLTFTGSPCIYYGDEIGMTGGNDPECRKCMVWDPEKQNKELYEHVKQLIALRKQYRALRRGDVAFLTADDEVNHLVYAKTDGNETVMIIINRSNEAAEIPMPIDARGKWLVNLLTGERFAAEAETLCVSLPPYGFVLYAVESW | soluble
2 | MGSDKIHHHHHHMSRGIYIVANDRVIDNAIALLNSIRYYDPEVTIYLIPFNENYHKVAEQLSTLHKVQIFPDLELIDKFTKRIGEIFDRDFLALPNKMRKLVAWFGPLDEFIYIDTDIVVFEKIADNLDKLSEVDFFCCDYHYANDKLRNIFSPFVKEQQLFSDAQLQDVFNSGFWASRKGVITEEQMDEALRECAAHREYFDFSEGVTDQPILNYLVLKLIDKRGNLVKIPGGGPGSWAGSQSFQQQDYALYDRGQRLKYLHWAGTRMKTGSPYWQLWEHYRYLHEGKFAFISKLTRRLFPFVAART | not soluble
3 | MSTQPSHPSSSNDLDSSIGTARIEVVSVPVKPRNKFSTTPVKRVEMKKSKESDSVDKALKVKSSLDCMKLEKPAPTTCEMKAA | soluble
4 | MFEVPITLTNRKFAQRRKLKYQYINYISRRFDRISKKSTTTDSLPTPENSAAENNDEEEGQNSEAGTYRRSVLQQKKRRRERHWRSVVGEIYSTTESETDSQEEETEEGGEHDTGIDKEDSDEERKFWKKYEKPEKSFEIWRTVSSQNKQPINKQKMTYHNFKKIEKIPLRKMEIPLLHCTKENKLYFQSISRGLEPLKTSTSEVRNYRTRHIVTLTDLLHLNVSRHNWSLAYKIFATLIRIPGVQIKSLWGIGVEILDNLSNSSSGLDFLQWMCQIYSSKSRFVQNINYRSIVPPFQTGSRTHTAKFAITYLWSSLINCQKSMEPSSNIIDKPFDTENDLLQELIDKISEWVLTPPFMEDAEVWFIYASCHLLKADTLSRQFVNDNKNNDLIGLDRDIKINQVIKHIHYVRTFLKICLDKGGFAVPSRLIENQLKSFESRLYGEAQDIQERDVANVYDSIDNSSVENSFGDVYETNAEFLDTQLMDLSPEDNGLDEMHYSDEDSSE | not soluble
5 | MLSMLSKISFTRPQAQELLRRLQAPRHLLQVVLGPRQVGKTTLALQVAQTCGLPYHYASADEPTLKEAPWLETQWTLARRLAQAGEALLVLDEAQKVLGWSETLKRLWDEDTLRGLPLKVVLLGSSPLLLQKGLSESLAGRFEVLHLPHWSFYEMERAFGYTLPEYLYFGGYPGAAPLREEPERFARYIKDALLETTLGRDILLHTRVEKPALLRRVLELGLLYSGQVLSYTKMLGQLQDAGNTVTLAYYLELLEGAGLLGALQKYAAEPIRRRASSPKLLALNTGLITAVLGLSPEEVWEDAALMGRLVETAVGAHLLAHAHQGGFEVYYWRERDQEVDFVLQKGKRLLALEVKSAPSKRTQGLEAFTRTFGAKGLLVGPEGVPLEAFLRDNPLNFL | soluble
6 | MGCVSSKSTTVLSPQTSFNEASRTSFRALPGPSQRQLEVYDQCLIGAARWPDDSSKSNTPENRAYCQSMYNSIRSAGDEISRGGITSFEELWGRATEWRLSKLQRGEPLYSAFASERTSDTDAVTPLVKPYKSVLARVVDHEDAHDEIMQDNLFGDLNVKVYRQTAYLHGNVIPLNTFRVATDTEYLRDRVAHLRTELGAKALKQHLQRYNPDRIDHTNASYLPIIKDHLNDLYRQAISSDLSQAELISLIARTHWWAASAMPDQRGSAAKAEFAARAIASAHGIELPPFRNGNVSDIEAMLSGEEEFVEKYRSLLDSDCFGTGHHHHHH | soluble
7 | MGSDKIHHHHHHMRINPGEITKVLEEKIKSFEEKIDLEDTGKVIQVGDGIARAYGLNKVMVSELVEFVETGVKGVAFNLEEDNVGIIILGEYKDIKEGHTVRRLKRIIEVPVGEELLGRVVNPLGEPLDGKGPINAKNFRPIEIKAPGVIYRKPVDTPLQTGIKAIDSMIPIGRGQRELIIGDRQTGKTAIAIDTIINQKGQGVYCIYVAIGQKKSAIARIIDKLRQYGAMEYTTVVVASASDPASLQYIAPYAGCAMGEYFAYSGRDALVVYDDLSKHAVAYRQLSLLMRRPPGREAYPGDIFYLHSRLLERAVRLNDKLGGGSLTALPIVETQANDISAYIPTNVISITDGQIYLEPGLFYAGQRPAINVGLSVSRVGGSAQIKAMKQVAGMLRIDLAQYRELETFAQFATELDPATRAQIIRGQRLMELLKQEQYSPMPVEEQVVVLFAGVRGYLDDLPVEEVRRFEKEFLRFMHEKHQDILDDIKTKKELTSETEEKLKKAIEEFKTTFRV | not soluble
8 | MSLQDESPLLIITDSALVRDALVTHISETRRLLIADSHDVGMELALSFRPALILLDASSTDGEALALLRAFRSEPHLDDTFILVLSDEAAVLERLEASRAGADDFLRLPVDQAELTARVAVALRQARLSRRLRAYTRRIEEEMRLVADLQMRLLPAYTPYLASLRIDSFYQPSTEASGDYFDHFLLPGEDRLRVVIADASGHGARSAVLMTMVRTLFHASHAANTPLTDMLLEINTNLLDVVGNEPDFVTLFAADLDLRGNTLRYVNAGHCPALLRHPDGTTMRLSGTTPRLGFFGVRETERLVPFTPGTRLLLYTDGFHDCATASGRRLGIDRFLSLAEATMRRGGDVLSSLREDISTTFGEPPTWPDDVTALYIERKEEGHHHHHH | soluble
9 | MKAKTLIDAYEAFCPLDLSMEGDVKGLQMGSLDKDIRKVMITLDIRESTVAEAIKNEVDLIITKHAPIFKPLKDLVSSPQRDILLDLVKHDISVYVSHTNIDIVPGGLNDWFCDLLEIKEATYLSETKEGFGIGRIGTVKEQALEELASKVKRVFDLDTVRLIRYDKENPLISKIAICGGSGGEFYQDAVQKGADVYITGDIYYHTAQEMLTEGLFAVDPGHHIEVLFTEKLKEKLQGWKEENGWDVSIISSKASTNPFSHL | not soluble
10 | MSRFDSGLPSVRQVQLLIKDQTPVEIKLLTGDSLFGTIRWQDTDGLGLVDDSERSTIVRLAAIAYITPRR | soluble
11 | MSITDVLSADDIAAALQECRDPDTFEPQKFFQTSGLSKMSANQVKDVFRFIDNDQSGYLDEEELKFFLQKFESGARELTESETKSLMAAADNDGDGKIGAEEFQEMVHS | soluble
12 | MRPILLPDPPSLSTGVPDIFEQGGSHNVVRRAVVIGNGFPGSENQCIGLVRALGLSDNHLLYVFSLLGLSLSRSGNFILFSTSLECMNVQRRRNYLNFYGNNELRIESLVEHDAGAITEFRLQGTLRVTRPKGGLNEWLHWLPVGFHKKLDFILRHIYLYSRLMLGSKQSKYISSVPSENGGNVGLASILEADVKGIVNLARQTYEKDGPLIVIACGRDTISIASSIRRLASENVFVVQIQHPRSHLNRFDMVITPRHDYYPLTLEAQEQVPRFMRSWITPREPPQDHVVLTTGALHQIDYASLRKAASAWHDEFAALPKPLVVVNIGWPRSNCRYGADLAKQLTDSLLNVLATCGSVRITLSYKTPAKVSRVIFKELGDNPKVYIWNGQEPNPYMGHLAWGDAFVVTADSVSLISEACSTGKPVYVVGADHCKWKIAEFQKSLRERGVVRSFTGFEDMSESWSYPPLNDTAEAATRIRRELAARGWSLRS | soluble

— the DeepSol protein solubility set
